3 molecules from paper PMC6042069 can be followed below.

Test in all cases: EMSA
On the technique in general: A gel shift assay detects complexes by their altered migration in electrophoresis.

For data set [1], the target named is T1, PPARγ2;RXRα (mouse;human, UniProt P37238;P19793 1-505;1-462, |).
Data set [2] deals with T1, PPARγ2;RXRα. The source holds these as a separate data set.
Data set [3] concerns the target T1, PPARγ2;RXRα. The source holds these as a separate data set.

Where two headings read alike, the source gives them in different places.

B1: LepRE1 DR1 (GOF) (dsDNA)
DNA 1: AAGATTTGAACTTTGAACTGAATTGGCTGCAGC
DNA 2: GCTGCAGCCAATTCAGTTCAAAGTTCAAATCTT
Consider B1, for which, in the data set with PPARγ2;RXRα [1], the binding result is “binds”.

B2: LepRE1 LOF (dsDNA)
DNA 1: AAGATTTGAAATTTCCGCAGAATTGGCTGCAGC
DNA 2: GCTGCAGCCAATTCTGCGGAAATTTCAAATCTT
Consider B2, for which the binding result in the data set with PPARγ2;RXRα [2] is reported as “no binding”.

B3: LepRE1 EXT (dsDNA)
DNA 1: AAGATTTGAACTTTCCGCAGGATTGGCTGCAGC
DNA 2: GCTGCAGCCAATCCTGCGGAAAGTTCAAATCTT
Take B3: the binding result in the data set with PPARγ2;RXRα [3] is listed as “binds”.
